According to the nanobody polyreactivity screen of Harvey et al. (2022):

Assay: yeast display, Sf9 membrane polyspecificity reagent, FACS + sequencing; frameworks hold sequencing errors
Summary of the method: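 After 36–48 hours of galactose induction, yeast (Saccharomyces cerevisiae BJ5465) displaying a synthetic nanobody library were stained at 4 °C for 1 hour with 10% biotinylated, detergent-solubilized Sf9 membrane reagent. Streptavidin microbeads enriched the stained cells before FACS sorting into low and high (top ~1%) gates on anti-HA and streptavidin fluorescence. Each clone's polyreactivity label reflects its gate of origin.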

QVQLVESGGGLVQAGGSLRLICAASGRIFYFYAMGWYRQAPGKERELVAAISTSGGSTYYADSVKGRFTISRDNAKNTVYLQMNSLKPEDTAVYYCAARFRYYGSEYDYWGQGTQVTVSS
polyreactivity (PSR sort gate): low polyreactivity

QVQLVESGGGLVQAGGSLRLSCAASGSIFVGNAMGWYRQAPGKERELVAAITRSGGRTYYADSVKGRFTISRDNAKNTVYLQMNSLKPEDTAVYYCNAVYWTVYSREYDYWGQGTQVTVSS
polyreactivity (PSR sort gate): high polyreactivity

QVQLVESGGGLVQAGGSLRLSCAASGSIFGFNAMGWYRPAPGKERELVAGITSGDRTNYADSVKGRFTISRDNAKNTVYLQMNSLKPEDTAVYYCAARKYVFFKMYYWGQGTQVTVSS
polyreactivity (PSR sort gate): low polyreactivity

QVQLVESGGGLVQAGGSLRLSCAASGSNFNYYTMGWYRQAPGKERELVAAITDSGGSTYYADSVMGRFTISRDNAKNTVYLQMNSLIPEDTAVYYCAAAVPELYEVRYHADYWGQGTQVTVST
polyreactivity (PSR sort gate): low polyreactivity

QVQLVESGGGLVQAGGSLRLSCAASGNIFDTYVMGWYRQAPGKERELVAAITSDGGTYYADSVKGRFTIARDNAKNTVYLQMNSLKPEDTAVYYCAADTYYYPIQDYWGQGTQVTVSS
polyreactivity (PSR sort gate): low polyreactivity

QVQLVESGGGLVQAGGSLRLICAASGRTFYRYAMGWYRQAPGKDRELVATISRSGGSTYYADSVKGRFTISRDNAKNTVYLQINSLKPEDTAVYYCAADIPSYYWWRAYDYWGQGTQVTVSS
polyreactivity (PSR sort gate): low polyreactivity

QVQLVESGGGLVQAGGSLRLSCAASGRISLFNAMGWYRQAPGKERELVAAITYTGGSTYYADSVKGRFTISRDNAKNTVYLQMNSLKPVDTAVYYCAADPWTAKDDSWGQGTQVTVSS
polyreactivity (PSR sort gate): high polyreactivity

QVQLVESGGGLVQAGGSLRLSCAASGSTFSSYAMGWYRQAPGKERELVAAINWSGGRTYYADSVKGRFTISRDNAKNTVYLQMNSLKPEDTAVYYCAAVGVYTYPYDYWGQGTQVTVSS
polyreactivity (PSR sort gate): high polyreactivity

QVQLVESGGGLVQAGGSLRLSSAASGGIFFYNTMGWYRQAPGKERELVAAITTNGDSTYYADSVKGRFTISRDTAKYTVYLQMNSLKPEDTAVYYCAAGRRWARWLFPSRYDYWGQGTQVTVSS
polyreactivity (PSR sort gate): low polyreactivity

QVQLVESGGGLVQAGGSLRLSCAASGYTFPFYTMGWYRQAPGKERELVAAISNSGTSTYYADSVKGRFTISRHNAKNTVYLQMNSLKPEDTAVYYSNAGRGTRFVYIDGMDYWGQGTQVTVSS
polyreactivity (PSR sort gate): high polyreactivity

QVQLVESGGGLVQAGGSLRLSCAASGSIYVLYAMGWYRQAPGKERELVAAISRGVGGKNYADSVKGRFTISRDNAKNTVYLQMNSLIPEDTAVYYCAAQTLRWSHYYYWGQGTQVTVSS
polyreactivity (PSR sort gate): high polyreactivity

QVQLVESGGGLVQAGGSLRLSCAASGSIFGYNTMGWYIQAPGKERELVATITRGGSTHYADSVKGRFTISRDNAKNTVYLQMNSLKPEDTAVYYCAATRLSYVRLYRFSQQYYYWGQGTQVTVSS
polyreactivity (PSR sort gate): high polyreactivity

QVQLVESGGGLVQAGGSLRLSCAASGSIFAGYAMGWYRQAPGKERELVATITSGGSTNYADSVKGRFTISRDNAKNTVYFHMNSLKPEVTAVYYCAADVEDSIPSSYTGGEYDYWGQCTQVTVSS
polyreactivity (PSR sort gate): low polyreactivity

QVQLEESGGGLVQAGGSLRLSCAASGSTFDFNAMGWYRQVPGKERELVAAITSGGSTNYADSVKGRFTISRDNAKNTVYLQMNSLKPEDTAVYYCAARPARGDSQGGYVRPWCYDSWGQGTQVTGSS
polyreactivity (PSR sort gate): low polyreactivity

KVNIEESGGGLVQAGGSLRLSCAAYGSIFRYYAMGRYRQATGKERELVASISSSGGSTYYADSEKGRFTISRDNAKNTVYLQMNSLKPEDTAVYYCAAVRHRNYGYWGQGTQVTVSS
polyreactivity (PSR sort gate): high polyreactivity

QVQHVESGGGIVQAGGSLRLSCAASGIIFTSNAMGWYRQAPGKERELVAAINWSGARTYYADSVKGRFTISRDNAKNTVYLQMNSLKPEDTAVYYCNVVTRAATYPDYSYDYWGQGTQVTVSS
polyreactivity (PSR sort gate): high polyreactivity

QDQLVESGGGLVQAGGSLRLSCAASGGIFPAYAMGWYSQAPGKERELVASISANGGRTYYADSVKGRFTISRDNAKNTVYLQMNSLKPEDTAVYYCNKRWLHWSGYDYWGQGTQVTVSS
polyreactivity (PSR sort gate): high polyreactivity

QVQLVESGGGLVQAGGSLRLSCAASGSIFVPYAMGWYRQAPGKERELVAAITRSSGSTYYADSVKGRFTISRDNAKNTVYVQMNSLKPQDSAVYYCAADFLLEFVYWGQGTQLTVSS
polyreactivity (PSR sort gate): low polyreactivity

QVQLVESGGGLVQAGGSLRLSCAASGYILGRYAMGWYRQAPGKERELVAAITSGGSTYYADSVKGRFTISRDNAKNTVYLQMNSLKPEDTAVYYCNAFFATGVDYWGQGTQVTVSS
polyreactivity (PSR sort gate): high polyreactivity

QDQLVESGGGLVQAGGSLSLSCAASGRNFFHNAMGWYRQAPGKERELVASITSGDGTYYADSVKGRFTISRDNAKNTVYLQMNSMKPEDTEVYSCAAEPGSIAYYYTRVGLYYWGQGTQVTVSS
polyreactivity (PSR sort gate): low polyreactivity

QVQLVESGGGLFQAGGILRLSCAASGFIFSSYAMGLYRLAPGKERELVAAISRSGGRTYYADSVKGRFTISRDYAKNTVYLQMNSLKPEDTAVYYCAARWYGLYLQRYDYWGQGTQVTVSS
polyreactivity (PSR sort gate): high polyreactivity

QVQLVESGGGLVQAGGSLRLSCAASGFTFPPYAMGLYIQATGKETELVAAITVGGGRTYYADSVKARFTISRDNARNTVYLQMNWLKPVDTAVYYCDADSHASTYDYWGQGTQVTVSS
polyreactivity (PSR sort gate): low polyreactivity

QVQLVQSGGGLVQAGGSLRLSCAASGSTFYLNAMGLYIQAPGKERELLAAITDAGSTNYADSVKGRFTISRDNAKNTVYLQMNSLKPEDTAVYYCNAEPRYYSGGHGYDYWGQGTQVTVSS
polyreactivity (PSR sort gate): low polyreactivity

QVQLVESGGGLFQAGGSLRITCSPSGFIFHGYAMGWYRQAPGKERELVAAISTGTNTNYADSLKGRFTISRDNAKNTVYIQMNRLKPEDTAVYYCNARSADTWYTSRRFYYWGQGTQVTVSS
polyreactivity (PSR sort gate): low polyreactivity

QVQLVESGGGLVQAGGSLRLSCAASGITFKSNAMGWYRQAPGKERELVAAISRRASSTYYADSVKGRFTISRDNAKNTVYLQMNSLKPEDTAVYYCNAVLPVYRTNMDYWGQGTQVTVST
polyreactivity (PSR sort gate): high polyreactivity

QVQLVESGGGLVQAGGSLRLSCAASGRTFRVYAMGWYRQAPGKERELVAAITGSGDSTYYADSVKGRFTISRDNAKYTVYLQMNSLKPEDTAVYYCNAVYRSTFDYWGQGTQVTVSS
polyreactivity (PSR sort gate): high polyreactivity

QVHLVESGGGLVQAGGSLRLSCAASGRIFAWNSMGWYRQAPGKERELVAAITYNGGSTYYADSVKGRFTISRDNAKNTVYLQMNSLKPEDTAVYYCNKVTRSPAQGYGYWGQGTQVTVSS
polyreactivity (PSR sort gate): high polyreactivity

QVQLVESGGGLVQAGGSLRLSCAASGRIIPNNAMGWYRQAPGKERELVAAITRGGTTYADSVKGRFTISRDNAKNTVYLQMNSLKPEDTAVYYCDTAAVKYGYRYYYWGQGTQVTVSS
polyreactivity (PSR sort gate): high polyreactivity

QVQLVESGGGLVQAGGSLRLSCAASGLIFVGNAMGWYRQAPGKERELVAAISASTDNTYYADSVKGRFTISRDNAKNTVYLQMISLKPEDTAVYYCNAEQSRNSGKHDYWGQGTQVTVSS
polyreactivity (PSR sort gate): low polyreactivity

QVQLVESGGGLLQAGGSLRLSCAASGRTFKYYAMGWYRQAPGKERELVAAISHSGGSTYYADSVKGRFTISRDNAKNTVYLQMNSLKPEDTAVYYCAADHGDGNYPYYYWGQGTQVTVSS
polyreactivity (PSR sort gate): high polyreactivity

QVQLVESGGGLVQAGGSLRLSCAASGSIFDQNAMVWYRQAPGKERELVAAITRGGSTKYADSVKGRFTISRDNAKNTVYLQMNSLKPEDTAVYYCARTARRRYQPYEYWGQGTQVTVSS
polyreactivity (PSR sort gate): low polyreactivity

QVQLVESGGGLVQAGGSLRLSCAASGRTFDVYAMGWYRQAPGKEMELVAAITRRGGSTYYADSVKGRFTISRDNAKNTVNLQMNRLKPEDTAVYYCSAAYSRGSGVGRYRLDYWGKGTQVTVSS
polyreactivity (PSR sort gate): high polyreactivity

QVQLGESGGGFFKAGASLRVICAASGRTFRRNAKGWYRQSPGTERELVAAITCGGSTNYADSVKGRFTISRDNENNTVYLQMNSLKPEDTAVYYCNADSVWGWYTYDYWGQGTQVTVSS
polyreactivity (PSR sort gate): high polyreactivity

QVQLVESGGGLVQAGGSLRLSCAASGSTRFWKDMGWYRQAPWKERELVAVISFSGVSTYYADSVKGRFTISRDNAKNTVYIQMNRLKPEDTAVYYCAIEDGYSQLKTTFDEPGYGSWGQGTQVNVSS
polyreactivity (PSR sort gate): low polyreactivity

EVQLVESGGGLVQPGGSLRLSCAASGYIYSRYRMGWYRQAPGKGREFVAAISGGSSTTYADSVKGRFTISRDNSKNTVYLQMNSLRAEDTAVYYCAAYKIDSDPRVYWGQGTQVTVSS
polyreactivity (PSR sort gate): low polyreactivity

QVQLVESGGGLVQAGGSLRLSCAASGSIFKYNAMGWYRQAPGKERQLVAAISSSGGYTSYADSVKGRFTISRDNAKNTVYLQMNSLKPEDTAVYYCNAPYLIYKKGRYDYWGQGTQVTVSS
polyreactivity (PSR sort gate): high polyreactivity

QLQLVESGGGLVQAGGSLRLSSAASGSIFYEYTMGWYRQAPGKEREVVAVITSGGTTNYADSVKGRFTISRDNANNTDYLQMNSLKPEDTAFYYCNAVYRTSFQRGGGYWGQGTQVTVSS
polyreactivity (PSR sort gate): high polyreactivity

QVQLVESGGGLVQAGGSLRLSCAASGLIFRPYTMGWYRQAPGKERELVATISGSGASTNYADSVKGRFTISRDNAKNTVYLQMNSLKPEDTAVYYCKGRSYSRMYYWGQGTQVTVSS
polyreactivity (PSR sort gate): high polyreactivity

QVQLVESGGGLVQAGGSLRLSCAASGFIFIHNAMGWYRQAPGKERELVAAISYSGGSTYYADSVKGRFTISRDNAKNTVYLQMNSLKPEDTAVYYCNRVQYYRADRMDYWGQGTQVTVSS
polyreactivity (PSR sort gate): low polyreactivity

QVQLVESGGCLVQAGGSLRLSCAASGRIFVYYAMGWYRQAPGKERELVAGISLSGGSTYYADSVKGRFTISRDNAKNTVYLQMYSLKPEDTAVYDSAIEVNAGYYVWYDYWGQGTQVTVSS
polyreactivity (PSR sort gate): low polyreactivity

QGQLVESGGGLVQAGCSLRLSCAASGSTFSYYAMGWYRQAPGKETELVAAIRKSGGSTYYADSVKGRFTISRDNAKNTVYLQMNSLKPEDTAVNSCVAVFSYYGWYSRYDYWGQGTQVTVSS
polyreactivity (PSR sort gate): low polyreactivity

QVQLEESGGGLVQAGGSLRLSCAASGFTFVSYAMGWYRQAPGKERELVAAISRRGGRTYYADSVKGRFTISRDNAKNTVYLQMNSLKPEDTAVYYCNKDYYGSPSSYYWYDYWGQGTQVTVSS
polyreactivity (PSR sort gate): high polyreactivity

QVHLVESGGGLVQAGGSLRLSCAASGFTFIRYAMGWYRQAPGKEREFVAAISWRVGITYYADSVKGRFTISRDNAKNTVYLQMNSLKPEDTAVYYCARDYRNPPFAYEYWGQGTQVTVSS
polyreactivity (PSR sort gate): low polyreactivity
